Test results published in the nanobody polyreactivity screen of Harvey et al. (2022).

Assay: yeast display, Sf9 membrane polyspecificity reagent, FACS + sequencing; frameworks hold sequencing errors
Procedure, shortened: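 Nanobodies came from a synthetic yeast display library in Saccharomyces cerevisiae BJ5465, induced with galactose for 36–48 hours and stained for 1 hour at 4 °C with 10% biotinylated, detergent-solubilized Sf9 membrane reagent. Cells were enriched on streptavidin microbeads and then FACS-sorted, with low and high (top ~1%) gates set on anti-HA fluorescence for expression and streptavidin fluorescence for reagent binding. Each polyreactivity label reflects the gate a clone came from. Genes were amplified by colony PCR, sequenced by MiSeq 2 × 250 and filtered by CDR length.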
For “QVQLVESGGGLVQAGGSLRLSCAASGIIFGKYAMGWYRQAPGKERELVASITVDGGTTYYADSVKGRFTISRDNAKNTVYLQMNSLKPEDTAVYYCATGVFAEQWFDYWPYDYWGQGTQVTVSS”, the “polyreactivity (PSR sort gate)” value was “high polyreactivity”.
For “QVQLVESGGGLVQAGGSLRLSCAASGIIFGKYVMGWYRQAPGKEREFVAAISVRSGSTYYADSVKGRFTISRDNAKNTVYLQMNSLKPEDTALYYCAAREPVPRHLDYYYWGQGTQVSVSS”, the “polyreactivity (PSR sort gate)” value was “high polyreactivity”.
With “QVQLVESGGGLVQAGGSLRLSCAASGIIFGNNAMGWYRQAPGKERELVAAIRWSTGTTYYADSVKGRFTISRDNAKNTVYLQMNSLKPEDTAVYYCAARLRREYGYWGQGTQVTVSS” the “polyreactivity (PSR sort gate)” value was “high polyreactivity”.
With “QVQLVESGGGLVQAGGSLRLSCAASGIIFGPYAMGWYRQAPGKERELVAAISSSGGNTYYADSVKGRFTISRDNAKNTVYLQMNSLKPEYTAVYYCAAEGYWGQPFDYDGALEYWGQGTQVTVSS” the “polyreactivity (PSR sort gate)” value was “high polyreactivity”.
For “QVQLVESGGGLVQAGGSLRLSCAASGIIFGPYAMGWYRQAPGKEWELVAAITWSGGGTYYADSVKGRFTISRDNAKNTVYLQMNSLKPEDTAVYYCAKYFPAGYYYWGQGTQVTVSS”, the “polyreactivity (PSR sort gate)” value was “low polyreactivity”.
With “QVQLVESGGGLVQAGGSLRLSCAASGIIFGRYAMGWYRQAPGKERELVAAISTSGGSTYYADSVKGRFTISRDNAKNTVYLQMNSLKPEDTAVYYCNAVPVVRAGHGYDSWGQGTQVTVSS” the “polyreactivity (PSR sort gate)” value was “high polyreactivity”.
With “QVQLVESGGGLVQAGGSLRLSCAASGIIFGRYTMGWYRQAPGKERELVAAITSSGITYYADSVKGRFTISRDNAKNTVYLQMNSLKPEDSAVYYCNADYSIPGYYWPYDYWGQGTQVTVSS” the “polyreactivity (PSR sort gate)” value was “low polyreactivity”.
With “QVQLVESGGGLVQAGGSLRLSCAASGIIFGRYTMGWYRQAPGKERELVAAITSSGITYYADSVKGRFTISRDNAKNTVYLQMNSLKPEDTAVYYCAAEYNWYDYWGQGTQVTVSS” the “polyreactivity (PSR sort gate)” value was “low polyreactivity”.
With “QVQLVESGGGLVQAGGSLRLSCAASGIIFGSYAMGWYRQAPGKEREFVADISKGDSTYYADSVKGRFTISRDNAKNTVYLQMNSLKPEDTAVYYCAVDSWRRALWYYGRYGYWGQGTQVTVSS” the “polyreactivity (PSR sort gate)” value was “low polyreactivity”.
For “QVQLVESGGGLVQAGGSLRLSCAASGIIFGTNAMGWYRQAPGKERELVAGITSSGDSTYYADSVKGRFTISRDNAKNTVYLQMNSLKPEDTAVYYCAAYSGVGFLWFDYWGQGTQVTVSS”, the “polyreactivity (PSR sort gate)” value was “low polyreactivity”.
With “QVQLVESGGGLVQAGGSLRLSCAASGIIFGTYAMGWYRQAPGKERDLVAAISSSGGSTYYADSVKGRFTISRDNAKNTVYLQMNSLKPEDTAVYYCAADGPSNHDYHWGQGTQVTVSS” the “polyreactivity (PSR sort gate)” value was “high polyreactivity”.
For “QVQLVESGGGLVQAGGSLRLSCAASGIIFGTYAMGWYRQAPGKERELVAAINWSGGSTYYADSVKGRFTISRDNAKNTVYLQMNSLKPEDTAVYYCAADGNEYDYWGQGTQVSVSS”, the “polyreactivity (PSR sort gate)” value was “low polyreactivity”.
For “QVQLVESGGGLVQAGGSLRLSCAASGIIFGTYAMGWYRQAPGKERELVASISSRGGSTYYADSVKGRFTISRDNAKNTVYLQMNSLKPEDTAVYYCAKRPSYAYSRYRKGHDYWGQGTQVSVSS”, the “polyreactivity (PSR sort gate)” value was “high polyreactivity”.
In the case of “QVQLVESGGGLVQAGGSLRLSCAASGIIFGVYAMGWYRQAPGKERELVAAIDGNGSSTYYADSVKGRFTISRDNAKNTVYLQMNSLKPEDTAVYYCAARPDYYLWHGYYTRRHYYWGQGTQVTVSA”, the “polyreactivity (PSR sort gate)” value is reported as “low polyreactivity”.
For “QVQLVESGGGLVQAGGSLRLSCAASGIIFGWYAMGWYRPAPGKERELVAAISSGGRTNYADSVKGRFTISRDNAKNTVYLQMNSLKPEDTAVYYCAARLWENTGYYYWGQGTQVTVSS”, the “polyreactivity (PSR sort gate)” value was “high polyreactivity”.
In the case of “QVQLVESGGGLVQAGGSLRLSCAASGIIFGYYAMGWYRQAPGKERELVAAISKRGGSTNYADSVKGRFTISRDNAKNTVYLQMNSLKPEDTAVYYCAARYPQGGTGKATYVRSRSGYWGQGTQVTVSS”, the “polyreactivity (PSR sort gate)” value is reported as “high polyreactivity”.
In the case of “QVQLVESGGGLVQAGGSLRLSCAASGIIFGYYAMGWYRQAPGKERELVAAISRGGNTNYADSVKGRFTISRDNAKNTVYLQMNSLKPEDTAVYYCAADFWSRIKYFYAVDVDYWGQGTQVTVSS”, the “polyreactivity (PSR sort gate)” value is reported as “low polyreactivity”.
In the case of “QVQLVESGGGLVQAGGSLRLSCAASGIIFGYYAMGWYRQAPGKERELVAAISRRGGSTYYADSVKGRFTISRDNAKNTVYLQMNSLKPEDTAVYYCNKRRAAGGFPYDYWGQGTQVTVSS”, the “polyreactivity (PSR sort gate)” value is reported as “high polyreactivity”.
For “QVQLVESGGGLVQAGGSLRLSCAASGIIFHWYAMGWYRQAPGKERELVAAITQSGGSTSYADSVKGRFTISRDNAKNTVYLQMNSLKPEDTAVYYCAKDYAYTLWENYYAFNYWGQGTQVTVSS”, the “polyreactivity (PSR sort gate)” value was “low polyreactivity”.
In the case of “QVQLVESGGGLVQAGGSLRLSCAASGIIFIAYAMGWYRQAPGKERELVADISIGGSTNYADSVKGRFTISRDNAKNTVYLQMNSLKPEDTAVYYCNAGGGFYGSTVEHDYWGQGTQVTVSS”, the “polyreactivity (PSR sort gate)” value is reported as “low polyreactivity”.
For “QVQLVESGGGLVQAGGSLRLSCAASGIIFIFYDMGWYRQAPGTERELVAAITNGVDSTYYADSVKGRFTISRDNAKNTVYLQMNSLKPEDTAVYYCNADTVVEWYSPSREYDYWGQGTQVTVSS”, the “polyreactivity (PSR sort gate)” value was “low polyreactivity”.
With “QVQLVESGGGLVQAGGSLRLSCAASGIIFITYAMGWYRQAPGKERELVAAITSDGNTNYADSVKGRFTISRDNAKNTVYLQMNSLKPEDTAVYYCNAETQYGVLSWHSTRHDYWGQGTQVTVSS” the “polyreactivity (PSR sort gate)” value was “low polyreactivity”.
With “QVQLVESGGGLVQAGGSLRLSCAASGIIFITYAMGWYRQAPGKERELVAVISKGGGRTYYADSVKGRFTISRDNAKNTVYLQMNSLKPEDTAVYYCAARSSSNRYVHMDYWGQGTQVTVSS” the “polyreactivity (PSR sort gate)” value was “high polyreactivity”.
In the case of “QVQLVESGGGLVQAGGSLRLSCAASGIIFKDYAMGWYRQAPGKERELVAAISWNGDRTYYADSVKGRFTISRDNAKNTVYLQMNRLKPEDTAVYYCAARFGSCFNYWGQGTQVTVSS”, the “polyreactivity (PSR sort gate)” value is reported as “high polyreactivity”.
For “QVQLVESGGGLVQAGGSLRLSCAASGIIFKGYPMGWYRPAPGKERELVAGISSGGTTYYADSVKGRFTISRDNAKITVYLQMNSLKPEDTAVYYCGAGPRRSYRFDYWGQGTQVTVSS”, the “polyreactivity (PSR sort gate)” value was “high polyreactivity”.
With “QVQLVESGGGLVQAGGSLRLSCAASGIIFKNYAMGWYRQAPGKERELVAAISKRGASTYYADSVKGRFTISRDNAKNTVYLQMNSLKPEDTAVYYCAAYRQGSAYDYWGQGTQVTVSS” the “polyreactivity (PSR sort gate)” value was “high polyreactivity”.
In the case of “QVQLVESGGGLVQAGGSLRLSCAASGIIFKNYAMGWYRQAPGKERELVAAISWRGGRTYYADSVKGRFTISRDNAKNTVYLQMNSLKPEDTAVYYCAKELYVSYRGGPWVDYWGQGTQVTVSS”, the “polyreactivity (PSR sort gate)” value is reported as “high polyreactivity”.
With “QVQLVESGGGLVQAGGSLRLSCAASGIIFKSYAVGWYRQAPGKERELVAAISSGGSTNYADSVKGRFTISRDNAKNTVYLQMNSLKPEDTAVYYCAKRYTATEWHGERDYWGQGTQVTVSS” the “polyreactivity (PSR sort gate)” value was “high polyreactivity”.
In the case of “QVQLVESGGGLVQAGGSLRLSCAASGIIFKTYAKGWYRPAPAKERELVAAISRRGGSTYYADSVNGRFTISRDNAKNTVYLQMNSLKPEDTAVYYCAAEYGYVIAYTTRAFYYWGHGTQVTVSS”, the “polyreactivity (PSR sort gate)” value is reported as “high polyreactivity”.
In the case of “QVQLVESGGGLVQAGGSLRLSCAASGIIFKYYAMGWYRQAPGKERELVAAITGNGGSTYYADSVKGRFTISRDNAKNTVYLQMNSLKPEDTAVYYCATRWFAVHMYWGQGTQVTVSS”, the “polyreactivity (PSR sort gate)” value is reported as “high polyreactivity”.
With “QVQLVESGGGLVQAGGSLRLSCAASGIIFLDNAMGWYRQAPGKERELVADITSSGGSTYYADSVKGRFTISRDNAKNTVSLQMNSLKPEDTAVYYCAATRPSYNDAESDYWGQGTQVTVSS” the “polyreactivity (PSR sort gate)” value was “low polyreactivity”.
With “QVQLVESGGGLVQAGGSLRLSCAASGIIFLDYVMGWYRQAPGKERELVAAISRSGGTTYYADSVKGRFTISRDNAKNTVYLQMNSLKPEDTAVYYCAVRSYRDTRFYYWGQGTQVTVSS” the “polyreactivity (PSR sort gate)” value was “high polyreactivity”.
With “QVQLVESGGGLVQAGGSLRLSCAASGIIFLFYAMGWYSQAPGKERELVGSITWSGGSTYYADSVKGRFTISRDTAKNTVYLQMNRLKPEDTAVYYCAASVKIISYLGQSEFLGGELDYWGQGTQVTVSS” the “polyreactivity (PSR sort gate)” value was “low polyreactivity”.
For “QVQLVESGGGLVQAGGSLRLSCAASGIIFLVYAMGWSRQAPGKEGQLVAGISGSATSTNYADSVKGRFTISRDNAKNTVYLEMNSLKPEDTAVYYCAASYYGYYVPDNSKYGYWGQGTQVTVSS”, the “polyreactivity (PSR sort gate)” value was “low polyreactivity”.
For “QVQLVESGGGLVQAGGSLRLSCAASGIIFLVYAMGWYRQAPGKERELVAGISGSATSTNYADSVKGRFTISRDNAKNTVYLQMNSLKPEETAVYYCAASYYGYYVPDNSKYGYWGQGTQVTVSS”, the “polyreactivity (PSR sort gate)” value was “low polyreactivity”.
For “QVQLVESGGGLVQAGGSLRLSCAASGIIFLVYARGWYRKAPGKVRELVAGISGSATSTNYADSVKGRFTISRDNAKNTVFLQMNSLKPEDTAVYYCAPEPDHVADSHSGYDYWGQGTQVTVSS”, the “polyreactivity (PSR sort gate)” value was “low polyreactivity”.
For “QVQLVESGGGLVQAGGSLRLSCAASGIIFLWYAMGWYRQAPWKERELVAAISRTGSSTYYADSVKGRFTISRDNAKNTVYLQMNSLKPEDTAVYYCAAAYYSKRSWRFDYWGQGTQVTVSS”, the “polyreactivity (PSR sort gate)” value was “high polyreactivity”.
In the case of “QVQLVESGGGLVQAGGSLRLSCAASGIIFLYYAMGWYRQAPGKEREFVAAISWSGGRTYYADSVKGRFTISRDNAKNTVYLQMNSLKPEDTAVYYCAATYALRKTGYDYWGQGTQVTVSS”, the “polyreactivity (PSR sort gate)” value is reported as “high polyreactivity”.
For “QVQLVESGGGLVQAGGSLRLSCAASGIIFLYYAMGWYRQAPGKERELVAAISSGGSTYYADSVKGRFTISRDNAKNTVYLQMNSLKPEDTAVYYCAARPRKSRAYTALGDYWGQGTQVTVSS”, the “polyreactivity (PSR sort gate)” value was “high polyreactivity”.
With “QVQLVESGGGLVQAGGSLRLSCAASGIIFNDYAMGWYRQAPGNERELVATISWSGGSTYADSVKGLFTISRDNAKNTVYLQMNSLKPEDTAVYYCANQPTVYHHYGLGYWGQGTQVTVSS” the “polyreactivity (PSR sort gate)” value was “low polyreactivity”.
